Target: G9a or GLP catalytic SET domains
Assay: ITC

A Kd of 4 to 6 µM was found for mDnmt3a(39–50)K44me0 peptide in this work.

Reference: publication PMC3286832
